How the values were obtained:
Assay type in all cases: biochemical
Trastuzumab = test: Trimming of trastuzumab by EndoSH; conditions: 0.1 w/w % EndoSH, 37° C., after 1 hour, 25 mM Tris buffer pH 8, MS analysis
Procedure: Trastuzumab (obtained from Epirus biopharma (Utrecht, The Netherlands)) in 25 mM Tris buffer pH 8), (14 mg/mL) was trimmed using a concentration of either 0.1 or 1 w/w % EndoSH. The reactions, 350 μg trastuzumab (25 μL) and the appropriate amount of EndoSH, were stirred at 37° C. and analyzed by MS analysis overtime, 1 to 3 hours. Samples were subjected to Fabricator treatment prior to analysis.
(§1) Prior to mass spectral analysis, IgGs were either treated with DTT, which allows analysis of both light and heavy chain, or treated with Fabricator™ (commercially available from Genovis, Lund, Sweden), which allows analysis of the Fc/2 fragment. For analysis of both light and heavy chain, a solution of 20 μg (modified) IgG was incubated for 5 minutes at 37° C. with 100 mM DTT in a total volume of 4 μL. If present, azide-functionalities are reduced to amines under these conditions. For analysis of the Fc/2 fragment, a solution of 20 μg (modified) IgG was incubated for 1 hour at 37° C. with Fabricator™ (1.25 U/μL) in phosphate-buffered saline (PBS) pH 6.6 in a total volume of 10 μL. After reduction or Fabricator-digestion the samples were washed trice with milliQ using an Amicon Ultra-0.5, Ultracel-10 Membrane (Millipore) resulting in a final sample volume of approximately 40 μL. Next, the samples were analyzed by electrospray ionization time-of-flight (ESI-TOF) on a JEOL AccuTOF. […]

[1] = test system: Trastuzumab having high-mannose glycans; test: Trimming of high-mannose trastuzumab by fusion protein EndoSH; conditions: 1 w/w % EndoSH, 37° C., after 3 hours, 25 mM Tris buffer pH 8, MS analysis
Procedure: Trastuzumab having high-mannose glycans (obtained via transient expression in CHO K1 cells in the presence of kifunensine performed by Evitria (Zurich, Switzerland)) (14 mg/mL) in 25 mM Tris buffer pH 8, was trimmed using a concentration of either 0.1 or 1 w/w % EndoSH. The reactions, 350 μg high-mannose trastuzumab (25 μL) and the appropriate amount of EndoSH, were stirred at 37° C. and analyzed by MS analysis over time, 1-3 hours. Samples were subjected to Fabricator treatment prior to analysis.
as §1, with “After reduction or Fabricator-digestion the samples were washed trice with milliQ using an Amicon Ultra-0.5, Ultracel-10 Membrane (Millipore) resulting in a final sample volume of approximately 40 μL.” left out

glycans on glycoproteins = test: pH at which the endoglycosidase activity operates
Description: Trimming of glycoproteins is known in the art, from e.g. WO 2007/133855 or WO 2014/065661.

B1: EndoSH: fusion enzyme of endoglycosidases EndoS and EndoH connected via a -(G4S)3-(His)6-(G4S)3- linker, SEQ ID NO: 1 (protein)
chain: MPSIDSLHYLSENSKKEFKEELSKAGQESQKVKEILAKAQQADKQAQELAKMKIPEKIPMKPLHGPLYGGYFRTWHDKTSDPTEKDKVNSMGELPKEVDLAFIFHDWTKDYSLFWKELATKHVPKLNKQGTRVIRTIPWRFLAGGDNSGIAEDTSKYPNTPEGNKALAKAIVDEYVYKYNLDGLDVDVEHDSIPKVDKKEDTAGVERSIQVFEEIGKLIGPKGVDKSRLFIMDSTYMADKNPLIERGAPYINLLLVQVYGSQGEKGGWEPVSNRPEKTMEERWQGYSKYIRPEQYMIGFSFYEENAQEGNLWYDINSRKDEDKANGINTDITGTRAERYARWQPKTGGVKGGIFSYAIDRDGVAHQPKKYAKQKEFKDATDNIFHSDYSVSKALKTVMLKDKSYDLIDEKDFPDKALREAVMAQVGTRKGDLERFNGTLRLDNPAIQSLEGLNKFKKLAQLDLIGLSRITKLDRSVLPANMKPGKDTLETVLETYKKDNKEEPATIPPVSLKVSGLTGLKELDLSGFDRETLAGLDAATLTSLEKVDISGNKLDLAPGTENRQIFDTMLSTISNHVGSNEQTVKFDKQKPTGHYPDTYGKTSLRLPVANEKVDLQSQLLFGTVTNQGTLINSEADYKAYQNHKIAGRSFVDSNYHYNNFKVSYENYTVKVTDSTLGTTTDKTLATDKEETYKVDFFSPADKTKAVHTAKVIVGDEKTMMVNLAEGATVIGGSADPVNARKVFDGQLGSETDNISLGWDSKQSIIFKLKEDGLIKHWRFFNDSARNPETTNKPIQEASLQIFNIKDYNLDNLLENPNKFDDEKYWITVDTYSAQGERATAFSNTLNNITSKYWRVVFDTKGDRYSSPVVPELQILGYPLPNADTIMKTVTTAKELSQQKDKFSQKMLDELKIKEMALETSLNSKIFDVTAINANAGVLKDCIEKRQLLKKGGGGSGGGGSGGGGSHHHHHHEFGGGGSGGGGSGGGGSAPAPVKQGPTSVAYVEVNNNSMLNVGKYTLADGGGNAFDVAVIFAANINYDTGTKTAYLHFNENVQRVLDNAVTQIRPLQQQGIKVLLSVLGNHQGAGFANFPSQQAASAFAKQLSDAVAKYGLDGVDFDDEYAEYGNNGTAQPNDSSFVHLVTALRANMPDKIISLYNIGPAASRLSYGGVDVSDKFDYAWNPYYGTWQVPGIALPKAQLSPAAVEIGRTSRSTVADLARRTVDEGYGVYLTYNLDGGDRTADVSAFTRELYGSEAVRTP
modifications: Fusion protein EndoSH
Trastuzumab
  conversion to the trimmed product, trimmed to the core GlcNAc sugar residue: Full conversions
[1]
  conversion to the trimmed product, trimmed to the core GlcNAc sugar residue: Full conversions
Glycans on glycoproteins
  pH at which both activities (EndoS and EndoH) of the fusion enzyme function smoothly: 7-8

Reference: patent US11957763B2, “Sulfamide linkers for use in bioconjugates” (SYNAFFIX B.V., priority 2016, dated 2024)
